Laboratory results as given in the DeepSol protein solubility set.

Test: soluble on expression in E. coli; label from the status in PepcDB or PDB records

**Q.** For “MAKKEEYVRKPDWLKIKLNTNETYTGLKKMMREKNLHTVCEEAKCPNIHECWAVRKTATFMILGDVCTRACRFCAVKTGLPNELDLQEPERVAESVEIMGLKHAVITAVARDDLKDGGAGVFAETVRAVRRRNPFCTIEVLPSDMMGNDDNLKTLMDARPNILNHNIETVRRLTPRVRARATYERSLEFLRRAKEMQPDIPTKSSLMIGLGETKDEIIETMDDLRANNVDIMTIGQYLQPTKKHLKVQKYYHPDEFAELKEIALSKGFSHCEAGPLVRSSYHADEQVNEAQVREEARKAAAKS”, which “soluble on expression in E. coli” value is on record?
**A.** Its value is “not soluble”.

**Q.** With “MSGGPVKTPFLSFIIPAYNEEQRLPSYLERVIGFFAGQSYSFEIVVVDDGSSDGTAALVKALMAQHSCLRLEALDRNRGKGFAVKTGMSAAKGQLRVFADADGATPVEEIRRLLDAREQGADIAIGSRAMRSDECIVQGRVHRKIMGTVFNGLIRALAVRGIHDSQCGFKLFTASAAEDIFPRQRITGFGFDVELLFLARRLGYVVVEVPVNWSDVEGTKVRLVRDSFRMLGEVLRIRFTNLTGGYGDIPGKTLEHHHHHH” as the sequence, how does the “soluble on expression in E. coli” value read?
**A.** Its value is “not soluble”.

**Q.** With “MNDLTLSPIAIIHTPYKEKFSVPRQPNLVEDGVGIVELLPPYNSPEAVRGLEQFSHLWLIFQMDQIQQGKWQPTVRPPRLGGNQRVGVFASRATHRPNPLGMSKVELRQVECINGNIFLHLGAVDLVDGTPIFDIKPYIAYADSEPNAQSSFAQEKLPVKMTVEFTEQAKSAVKKREEKRPHLSRFIRQVLEQDPRPAYQQGKPSDRIYGMSLYEFNVKWRIKAGTVNCVEVIEIEKDKLEHHHHHH” as the sequence, how does the “soluble on expression in E. coli” value read?
**A.** Its value is “soluble”.

**Q.** With “MRDLYPLTRRRLLTAMALSPLLWQMNTAQAAAIDPRRIVALEWLPVELLLALGITPYGVADVPNYKLWVSEPPLPDSVIDVGLRTEPNLELLTEMKPSFMVWSAGYGPSPEKLARIAPGRGFDFSDGKKPLAVARRSLVELAQTLNLEAAAEKHLAQYDRFIASQKPHFIRRGGRPLLMTTLIDPRHMLVLGPNCLFQEVLDEYGIVNAWQGETNFWGSTAVSIDRLAMYKEADVICFDHGNNTDMNALMATPLWQAMPFVRAGRFHRVPAVWFYGATLSTMHFVRILNNVLGGKA” as the sequence, how does the “soluble on expression in E. coli” value read?
**A.** The value was “not soluble”.

**Q.** With “MSLKSALRLYNRASFKASHKVIEEYSTSFSLSTWLLSPRIRNDIRNLYAVVRIADEIVDGTAHAAGCSTAKIEEILDAYEIAVLAAPQQRFNTDLVLQAYGETARRCDFEQEHVIAFFASMRKDLKANTHDPDSFTTYVYGSAEVIGLLCLSVFNQGRTISKKRLEIMQNGARSLGAAFQKINFLRDLAEDQQNLGRFYFPKTSQGTLTKEQKEDLIADIRQDLAIAHDAFPEIPVQARIGVISAYLLFQKLTDRIEATPTADLLRERIRVPLHIKLSTLARATMKGLSMSIYRKNSEGHHHHHH” as the sequence, how does the “soluble on expression in E. coli” value read?
**A.** The value was “soluble”.

**Q.** Which “soluble on expression in E. coli” value does the source give for “MGSDKIHHHHHHMEFSNAERDVFLIKIEKMIDRGALMSRYSRASDPDIRSVYEKEFKTGAKSGEEFYRRIFLEYGDESIAELTTAQMGIQNVSNVASKIIEEIRIGLSYLEKSTRYVRYDKKVDGRYLYISPERIGISGDDAKDYVQLCDNLFEFYSKALPQVEDYLRHKFPQDKLVFQNAGGKTLTEMDQNEKKIAERSYINAVRSRALDDVRYILPASTLTNIGISGNGRALIHLIQKLMEYEIPETTKLAKDIYDELKPELPQLIDDALSGHGLEIINFKKNLMGLFPYDLTGNFERIRLLSYGEEDKELRKVASLIEYPFHGDAASLYSRSSESYVKYMKELIESIRSLRANRRMKPGRAFESVNYVFELNLNYGSFRDLQRHRFLGIIRKPLTAAYGYDTPPVISAIDELKTQYDELMANSSSFYQRLREKYGPWISQYVVPFAFKYPITFSTNLSEVTYFVELRSTAQAHFDLRDIAVSMYREVSKVHPTLSRIIKFVDTADYPLGRLSAEFRKESKKAGI” here?
**A.** Its value is “not soluble”.

**Q.** With “MDFKQYSPEELKECSMIEVVHSVLGDKKQATTFNELVQEIAQVLGLSQEQVNAKIAQFYTDLNIDGRFINLGENRWGLRSWYPYEQIDEEILPQPKPKKKRKVEEDGFDDYIDEDEDDFDDVDGNEDEDDDVEDLDKVLEDEDGDDDDLDDLDEDEDDFAEEELEYDETEEEEEEEL” as the sequence, how does the “soluble on expression in E. coli” value read?
**A.** Its value is “not soluble”.

**Q.** For “MIKEQVKSLWKLCFDDSEAFIELYFRLRYNNEVNLAIQSGEEVIAALQMLPYPMTFCNKIVPTSYISGACTHPDYRAKGVMRELLSQSFARMLRNGVLFSTLIPAEPWLFGYYAKTGYTPAFRISHKVFSLSELTIGPEPDTMIEETTEYQEDYYQYLTGKLSERACCLQHTPTDFKVVLADLALTQNTVLIARKDNRVTGIAVVYKHDDSSYINELFADNEAVRAQLLYRAGLRNGTERIILQLPPVESLPSVPLGMARIIDARAVLQLYAAGCPEVEMNIELTDEQLSVNNGYYYLCKGKCMTSEVRLPGVHTRMTIAELSEKILGEMQPYMSLMMN”, which “soluble on expression in E. coli” value is on record?
**A.** The value was “not soluble”.

**Q.** Which “soluble on expression in E. coli” value does the source give for “GIVMTQTPASQSASLGESVTITCLASQTIGTWLAWYQQKPGKSPQLLIYAATSLADGVPSRFSGSGSGTKFSFKISSLQAEDFVSYYCQQLSSTPYTFGGGTKLEIKRADAAPTVSIFPPSSEQLTSGGASVVCFLNNFYPKDINVKWKIDGKERQNGVLNSWTDQDSKDSTYSMSSTLTLTKDEYERHNSYTCEATHKTSTSPIVKSFNRNE” here?
**A.** Its value is “soluble”.

**Q.** With “MGSDKIHHHHHHMKNGKISESVLKRSVLKQLHTKSDRILFKPAVGEDCAVISMQAGGKTKLVTATQTFTLDVSDKHVRANCAVYDALNNIYAMGADPVGIELALLVPTTENEAVLRETVRAIDAVCEKAGIVVLGGHTQVSRAVKNIVVTVTAIGEAYEQALTPSSAAAPGMDVIVTGYVGLEGTAILANEKRTELETRFSKAFIDKSAAYIDHISTAMEAASAIGAGVAAIHDASQGGIFGALWDMAEASGIGLDIDLKKLPIRQDTIEISEFFDINPYKLLSGGSLIIIAADGTRVVRELEKTGQNAVIVGATTDSNDRVLISGEERRFLETAQTDEIYKVFN” as the sequence, how does the “soluble on expression in E. coli” value read?
**A.** The value was “not soluble”.

**Q.** Which “soluble on expression in E. coli” value does the source give for “MKLTGKQTWVFEHPIFVNSAGTAAGPKEKDGPLGSLFDKTYDEMHCNQKSWEMAERQLMEDAVNVALQKNNLTKDDIDLLLAGDLLNQNVTANYVARHLKIPFLCMFGACSTSMETVAVASALVDGGFAKRALAATSSHNATAERQFRYPTEYGGQKPDTATSTVTGSGAVVISQTPGDIQITSATVGKVSDLGITDPFDMGSAMAPAAADTIKQHFKDLNRTADDYDLILTGDLSGVGSPIVKDILKEDGYPVGTKHDDCGLLIYTPDQQVFAGGSGCACSAVVTYSHIFKQLREGKLNRVFVVATGALLSPTMIQQKETIPTIAHGVVFERAGGASLEHHHHHH” here?
**A.** The value was “soluble”.

**Q.** Which “soluble on expression in E. coli” value does the source give for “MGSDKIHHHHHHMISYGELIRQIRQSKKISQKEVYTGVISKSYAIEFEKGTHAISSLLLEKIVAKLMVSMEEFFLMYHQEALPEKEDFWEAYARTCKTDEASAWESLYQKISLEKGKVNQVKSAAIKLELDHIKGKQVADKKAVQILENYLIEAVFWTLQDIFLFTRMMHYLPLKSRVPFYYKLLNTLDRYRHFERGRSISQSALASIMDDFIEKNEIEYMELMIKSLEKISEDCDGTYSKILCMYYRGIVRWREGEKREGSEEIEQAVAILRALGYENKAAEYETMYRQFARENNDIKTME” here?
**A.** Its value is “not soluble”.

**Q.** For “MSLKVSAHNGNSDPSGAVQRRQSFRKSKTEDTVGTGNNGAANGGGGGAAANNNQMLENDLLSKYMGNQSPARQQVKKNLLNGTSGGGESVPAKPKTYDARCYVQNGSINFGKIITDEVLAADYDLVEAAKKMSDFAGTTALIAVIHRTKLIVANVGDSRGVMCDFKGNAIPLSFDHKPQQVREQKRIADAGGFIAFKGVWRVAGILATSRALGDYPLKEKNLVIANPDVLSFDLVDHRPQFLILASDGLWDTFTNEEAVAYVRERLDEPHFGAKSIALQSYSRGSVDNITVLVIVLKNGRYEIGSSSNEGHHHHHH”, which “soluble on expression in E. coli” value is on record?
**A.** The value was “soluble”.

**Q.** For “SLNGRPTTPNGAAGKWGDYRKCDTPKRTVDHMLNHIADTHSDIDFIIWTGDLPPHDVWNQTKEENLKVLKETVTQMTEKFPGIPIFPALGNHESAPVNSFPPPYVQQVDSSIAWLYDELDVQWRRWLPASVSHTVRRGAFYSVLVRPGYRIISLNMNYCNNKNWWLLLNSTDPATELQWFIYELQSAEFAGEKVHVIGHIPPGHSDCLKVWSRNYYKIVSRFESTITAQFFGHTHFDEFEVFYDPHDLSRATSIAYIGPSVTPYNDLNPGYRIYYIDGDHDETTRLVVDHESWIMNLKEANLYDYPIWYKLYSTRAAYGMKGLRPADWDQLINNMTDSKELFDLYYKHYWKASPVKPECDYECRKRILCDAKSGRSHDRKYFCEEVEAKIDESNKGWKDWLFS”, which “soluble on expression in E. coli” value is on record?
**A.** Its value is “not soluble”.

**Q.** With “MRKVLVFLKNSKKAFETFKRVERVLKDLNLSYKKFINRKELFKVLKPKDYELFLVIGGDGTFLSAARIASRFGVPLVGVNEGRFGFLTEIKKEEIKKVLPLVLEGRAKLQERLMIDVYLRSRNRLRYLGNYLNDAVISKSSIARIIRTKVFINGEEVLEVFGDGVILSTPTGSTAYALSAGGPIVYPESQNLLFVPICPHTLSNRPLVLPSKFEVKFKVVSENMEAFLTLDGQEGFHLKKGDEVIVKRSRYVCRMYSHPRKSFFGILKEKLRWG” as the sequence, how does the “soluble on expression in E. coli” value read?
**A.** Its value is “soluble”.

**Q.** Which “soluble on expression in E. coli” value does the source give for “MCMYGGIYVNNGYSPMSSNQQNVSVEHDIIMRGRRVIDITGVKQVESFDSEEFLLETVMGFLTIRGQNLQMKNLDVEKGVVSIKGKVHEMLYIDENQGEKTKGFFSKLFKLEHHHHHH” here?
**A.** Its value is “soluble”.

**Q.** Which “soluble on expression in E. coli” value does the source give for “NKSYRSTEQITNFAKALLPDGDQIQAFTRKGDLPKVMIRYGEDAALSSLRSEVEHQLKATNTVAVLTKDLAESKQVYQYLKRYTVTTLMADSDRTMPQGVIVMPIYLAKGLEFDAVVAYDVSATNYPDADSVGILYTIASRAMHHLTLLSIGDVSPLIAQLDPTLFTIEHQVRV” here?
**A.** Its value is “not soluble”.

**Q.** With “MAHHHHHHMGYGGPRVEFYTANQYSNFAAAIDRENAARVRSILHRRNLPAEQEAQRQREAAFRAYERAQADEVARSHAEEAEALERRRVKDERAQRRLATKTRRRSLTAAEVASRRSRHACLCRLAEPRKYQEAMYGSGMIGGAMPHQSGRDGKLPTVGRNGAVYCAGVDRDRIVPSRPALEGTVPPWKGSYSTHHGPHKLDAQMAKEAAAYYCAHPAPQRSASEQDMRQQTLQSIAAEHSMAAQQDGADVGMADASGAKGRSSVADAVQWHRMGSDNVDDEAGSIFSHGSSNGPIAATGNMHLSTTSTKHSVQLHLSRYGGAMTAPRPWRPSKAASENLTLPELADRLVCIQMSKSVVR” as the sequence, how does the “soluble on expression in E. coli” value read?
**A.** Its value is “not soluble”.

**Q.** With “MVKIAIITYSTYGHIDVLAQAVKKGVEAAGGKADIYRVEETLPDEVLTKMNAPQKPEDIPVATEKTLLEYDAFLFGVPTRFGNLPAQWSAFWDKTGGLWAKGSLNGKAAGIFVSTSSYGGGQESTVKACLSYLAHHGIIFLPLGYKNSFAELASIEEVHGGSPWGAGTLAGPDGSRTASPLELRIAEIQGKTFYETAKKLFPAKEAKPSTEKKTTTSDAAKRQTKPAAATTAEKKEDKGLLSCCTVM” as the sequence, how does the “soluble on expression in E. coli” value read?
**A.** The value was “soluble”.

**Q.** Which “soluble on expression in E. coli” value does the source give for “FLNTISTKDFKQKMADKTTGFVYVGRPTCEDCQAFQPILKKELEKRQPDQKMAYYNTDKASEKSRDDMIALLKKMDIDSVPTMVYLKDGKVASTYAATDEPAKLTNWMNKVSGEVSE” here?
**A.** The value was “soluble”.

**Q.** With “GMGIHQYFQSLSDLENIYRCPGKFKYQEHSVAEHSYKVTSIAQFFGAVEEDAGNEVNWRALYEKALNHDYSELFIGDIKTPVKYATTELREMLSEVEESMTKNFISREIPATFQPIYRHLLKEGKDSTLEGKILAISDKVDLLYESFGEIQKGNPENIFVEIYSEALATIYEYREMASVKYFLKEILPDMLAEKGIEKTELPQLTTEITTKALRDE” as the sequence, how does the “soluble on expression in E. coli” value read?
**A.** Its value is “soluble”.

**Q.** With “IGEFSYHVNGNFSIIKNKVISLGVGDVEQKSGMIGNGSDLFLGYPMNMFYGYKTDGVFLTDDEVKEWHDQSKIAPNSKAGDLRYVDISGDGKVDESDKTYLGSKIPQYTFGLGLGAEYKGFDFNILLQGVAKVKGQLTNYAGYAFFQEGNIQKWQAEETWTNNQSNRYPKYPRLEVMSNAGSNNTLGSDFWILDASYLKVRNIQLGYTLPKRITQKFGSSNLRFYISLDNPFSISGYRKGWDPEINTDGSYYPILSTYTFGLTLKF” as the sequence, how does the “soluble on expression in E. coli” value read?
**A.** The value was “not soluble”.
